This experiment concerns the target MavC, wild type (Legionella pneumophila) (UniProt Q5ZTL4). The experiment is described as follows: ITC. (In general: Isothermal titration calorimetry measures the heat released or taken up as one component is titrated into another.)

For orientation: Kd means the free concentration of one partner at which half of the binding sites on the other are occupied at equilibrium, for simple one-to-one binding. Low readings indicate tighter binding, high ones weaker binding. In turn, “Lpg2149, wild type (from UniProt Q5ZTL2 1-119) (natural protein)” had a dissociation constant (Kd) of 0.57 nM.

Values taken from publication PMC7265302.
